# Results published in patent US20240390509A1, “ANTIBODY-DRUG CONJUGATE, PREPARATION METHOD THEREFOR, AND PHARMACEUTICAL USE THEREOF” (SHANGHAI HANSOH BIOMEDICAL CO., LTD., priority 2021, published 2024).
# B1: DS-1062-compound D (y = 4) (conjugate, chains of the INN, looked up)
# VH: QVQLVQSGAEVKKPGASVKVSCKASGYTFTTAGMQWVRQAPGQGLEWMGWINTHSGVPKYAEDFKGRVTISADTSTSTAYLQLSSLKSEDTAVYYCARSGFGSSYWYFDVWGQGTLVTVSS
# VL: DIQMTQSPSSLSASVGDRVTITCKASQDVSTAVAWYQQKPGKAPKLLIYSASYRYTGVPSRFSGSGSGTDFTLTISSLQPEDFAVYYCQQHYITPLTFGQGTKLEIK
# modifications: compound D drug conjugate
# B2: DS-1062 (conjugate, chains of the INN, looked up)
# VH: B1 VH
# VL: B1 VL
# modifications: deruxtecan payload
# Key:
# Parameters in all cases: species or system nude mice (Balb/c Nude)
# [1] = test system: human gastric cancer NCI-N87 tumor cell transplant mouse model; assay: Dose-dependent in vivo anti-tumor effect, NCI-N87 transplant mouse model (Example 11); settings: NCI-N87 xenograft, 1 mg/kg IV Q2W, day 28
# Method: In order to further study the inhibitory effect of antibody-drug conjugate on tumors formed in vivo, the Trop-2 positive tumor cell human gastric cancer NCI-N87 tumor cell transplant mouse model was used to evaluate the inhibitory effect of candidate molecule on tumor proliferation in vivo. 5×10^6 NCI-N87 cells were injected subcutaneously into 6-week-old nude mice (Balb/c Nude) weighing about […]. After 8 days, the average tumor volume reached 175 mm^3 and grouping was performed, and the antibody-drug conjugate was started to be injected intravenously every 2 weeks at a dose of 2 mg/kg or 1 mg/kg. The control used human IgGI isotype control antibody at a dose of 2 mg/kg. There were 5 mice in each group of the control group or the administration group. The tumor inhibition rate was calculated by measuring the tumor volume.
# [2] = test system: human head and neck cancer squamous cell carcinoma FaDu tumor cell transplant mouse model; assay: In vivo efficacy, FaDu transplant mouse model; settings: FaDu xenograft, day 17
# Method: In order to further study the inhibitory effect of antibody-drug conjugate on tumors formed in vivo, the Trop-2 positive tumor cell human head and neck cancer squamous cell carcinoma FaDu tumor cell transplant mouse model was used to evaluate the inhibitory effect of candidate molecule on tumor proliferation in vivo. The cell suspension mixed with Matrigel in equal proportions was added, and 5×10^6 FaDu cells per animal were injected subcutaneously into 6-week-old nude mice (Balb/c Nude) weighing about […]. After 8 days, the average tumor volume reached 133 mm^3 and grouping was performed, and the antibody-drug conjugate was started to be injected intravenously at a single dose of 3 mg/kg or 1 mg/kg. The control used human IgGI isotype control antibody at a dose of 3 mg/kg. There were 5 mice in each group of the control group or the administration group. The tumor inhibition rate was calculated by measuring the tumor volume.
# [3] = test system: lung cancer Calu-3 tumor cell transplant mouse model; assay: In vivo efficacy, Calu-3 transplant mouse model; settings: Calu-3 xenograft, 10 mg/kg IV single dose, day 21
# Method: In order to further study the inhibitory effect of antibody-drug conjugate on tumors formed in vivo, the Trop-2 positive tumor cell lung cancer Calu-3 tumor cell transplant mouse model was used to evaluate the inhibitory effect of candidate molecule on tumor proliferation in vivo. The cell suspension mixed with Matrigel in equal proportions was added, and 2×10^6 Calu-3 cells per animal were injected subcutaneously into 6-week-old nude mice (Balb/c Nude) weighing about […]. After 8 days, the average tumor volume reached 148 mm^3 and grouping was performed, and the antibody-drug conjugate was started to be injected intravenously at a single dose of 10 mg/kg. The control used human IgG1 isotype control antibody at a dose of 10 mg/kg. There were 5 mice in each group of the control group or the administration group. The tumor inhibition rate was calculated by measuring the tumor volume.
Molecule,Tumor inhibition rate [1],Tumor inhibition rate ([2]; 1 mg/kg IV single dose),Tumor inhibition rate ([2]; 3 mg/kg IV single dose),Tumor inhibition rate [3]
B1,78.2%,–,–,–
B2,–,74.8%,200%,85.61%
